{"source": "patent US11845963B2", "about": "“HSD17B13 variants and uses thereof” (Regeneron Pharmaceuticals, Inc., priority 2017, dated 2023)", "molecules": {"B1": {"name": "HSD17B13 isoform D: HSD17B13 protein Isoform D, SEQ ID NO:42; prematurely truncated protein encoded by Transcript D of the rs72613567 variant (protein)", "chain": "MNIILEILLLLITIIYSYLESLVKFFIPQRRKSVAGEIVLITGAGHGIGRQTTYEFAKRQSILVLWDINKRGVEETAAECRKLGVTAHAYVVDCSNREEIYRSLNQVKKEVGDVTIVVNNAGTVYPADLLSTKDEEITKTFEVNILGHFWITKALLPSMMERNHGHIVTVASVCGHEGIPYLIPYCSSKFAAVGFHRGLTSELQALGKTGIKTSCLCPVFVNTGFTKNPSTRLWPVLETDEVVRSLIDGILTNKKMIFVPSYINIFLRLQKVSS", "modifications": "homo sapien", "notes": "prematurely truncated protein encoded by Transcript D of the rs72613567 variant"}, "B2": {"name": "HSD17B13 isoform A: HSD17B13 protein Isoform A, SEQ ID NO:39; full-length 300 amino acid protein encoded by Transcript A (protein)", "chain": "MNIILEILLLLITIIYSYLESLVKFFIPQRRKSVAGEIVLITGAGHGIGRQTTYEFAKRQSILVLWDINKRGVEETAAECRKLGVTAHAYVVDCSNREEIYRSLNQVKKEVGDVTIVVNNAGTVYPADLLSTKDEEITKTFEVNILGHFWITKALLPSMMERNHGHIVTVASVCGHEGIPYLIPYCSSKFAAVGFHRGLTSELQALGKTGIKTSCLCPVFVNTGFTKNPSTRLWPVLETDEVVRSLIDGILTNKKMIFVPSYINIFLRLQKFLPERASAILNRMQNIQFEAVVGHKIKMK", "modifications": "homo sapien", "notes": "full-length 300 amino acid protein encoded by Transcript A"}}, "key": {"[1]": {"target": "T1, recombinant human HSD17B13 (Homo sapiens, UniProt Q7Z5P4)", "T1 sequence (Q7Z5P4 20-300)": "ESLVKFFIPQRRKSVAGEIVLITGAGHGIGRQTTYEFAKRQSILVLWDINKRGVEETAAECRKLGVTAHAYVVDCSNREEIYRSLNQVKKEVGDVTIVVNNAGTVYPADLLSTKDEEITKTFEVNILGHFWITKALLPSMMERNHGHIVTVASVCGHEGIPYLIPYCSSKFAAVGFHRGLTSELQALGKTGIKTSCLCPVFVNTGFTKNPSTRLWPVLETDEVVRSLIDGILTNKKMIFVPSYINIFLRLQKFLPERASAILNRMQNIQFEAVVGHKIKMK", "test": "Substrate screening of steroid and bioactive lipid libraries against purified recombinant HSD17B13 (NADH-Glo)", "format": "biochemical", "details": "265 unique putative substrates tested", "experimental": "Reactions were performed in a final volume of 40 μl of assay buffer (0.2 M Tris-HCl, pH 7.5) which contained 500 μM NAD^+, 5 μM bioactive lipid or 50 μM steroid (all in a final concentration of 5% DMSO), and 100 ng recombinant human HSD17B13. Reactions were incubated for 3 hours, at 23° C. after which an equal volume NADH-Glo Detection Reagent (Promega) was added. Following a 1 hour incubation at 23° C., the relative light units (RLUs) were measured on an Envision Plate Reader (Perkin Elmer). Raw RLU values were normalized as percent of control (50 μM estradiol) following subtraction of negative control (5% DMSO) using the following formula: Percent of control (POC)=100×(Sample (RLU)−Negative CTRLaverage)/(Positive CTRLaverage−Negative CTRLaverage)."}, "[2]": {"system": "HepG2 cells overexpressing HSD17B13 Transcript A or D or GFP", "test": "Quantification of intracellular triglyceride content in stable cell lines", "format": "cell-based, human", "details": "for intracellular triglyceride content of overexpressing cell lines versus GFP control: with oleic acid treatment, FIG. 10", "experimental": "HepG2 cells were cultured in Eagle's Minimum Essential Medium supplemented with 10% fetal bovine serum. HSD17B13 transcripts A and D were sub-cloned into Myc-DDK backbone lentivirus constructs, and lentivirus were generated. HepG2 cells were infected with lentivirus carrying the HSD17B13 transcripts. Stable cell lines expressing each HSD17B13 transcript were selected with 1-3 mg/ml Geneticin G-418 sulfate in complete culture medium for two weeks. Following fixation, HSD17B13 isoforms were detected with mouse anti-Myc antibody. Lipid droplets were labeled with BODIPY FL dye (Sigma). Secondary antibodies for immunofluorescence were Alexa Fluor 488 donkey anti-rabbit IgG and Alexa Fluor 594 donkey anti-mouse IgG (Jackson ImmunoResearch).\nThe triglyceride (TG) content from the stable cells was determined using a TG quantification kit (Abcam). In the assay, TG are converted to free fatty acids and glycerol. The glycerol is then oxidized to generate a product which is quantified (spectrophotometry at λ=570 nm)."}, "[3]": {"system": "HEK293 cells overexpressing HSD17B13 transcript A, transcript D or GFP", "test": "Cell-based conversion of estradiol to estrone in culture media, LC-MS", "set-up": "species or system human", "details": "overexpressed in HEK293 cells; FIG. 4F", "experimental": "HEK293 cells overexpressing HSD17B13 transcript A, transcript D or green fluorescent protein (GFP, control) were used to investigate the activity of HSD17B13 against estradiol in a cell-based assay. Estradiol (1 μM) was fed to each cell type. After 48 hours, the media was collected and the concentration of estradiol and its converted product estrone were identified and quantified by LC-MS."}, "[4]": {"target": "T2, recombinant human HSD17B13 (Homo sapiens, UniProt Q7Z5P4)", "T2 construct": "Transcript A, which encodes the full-length 300 amino acid protein; 10xHis (C); host or cells: E. coli", "T2 sequence (Q7Z5P4 with tags, fused parts or gaps)": "B1 chain", "test": "In vitro enzymatic activity of purified recombinant HSD17B13 isoforms A and D (NADH production, NAD(P)H-Glo)", "format": "biochemical", "details": "FIG. 4E", "experimental": "Recombinant human HSD17B13 protein was purified from E. coli (Genscript) transformed with plasmid DNA harboring HSD17B13 transcript A or transcript D. The HSD17B13 variants contained a 10×His tag at the C terminus and were purified from soluble fraction using a Ni2^+ affinity purification. Enzymatic activity was determined through measurement of NADH production using the NAD(P)H-Glo Detection System (Promega). Reactions were performed for 3 hours at 25° C. in 0.2 M Tris-HCl, pH 7.5, 0.5 mM NAD^+, 75 μM of substrate (Sigma) and 500 ng purified enzyme in a final volume of 100 μL. After incubation, 20 μL of the reaction was combined with 20 μL luciferase reagent (Promega), incubated at room temperature for 1 hour and read on an Envision Plate Reader (Perkin Elmer)."}}, "note": "“Also recorded” adds a separate entry of the source.", "data": [{"molecule": "CCCCC/C=C\\C[C@@H](O)/C=C/C=C/C=C\\[C@@H](O)CCCC(=O)O", "note": "[leukotriene B4]", "values": [{"measurement": "identified as enzymatic substrate of HSD17B13", "setting": "[1]", "value": "enzymatic substrates of HS17B13"}]}, {"molecule": "CCCCCCCC/C=C\\CCCCCCCC(=O)O", "note": "[oleic acid, reference compound]", "values": [{"measurement": "triglyceride (TG) content after oleic acid treatment", "setting": "[2]; increasing concentrations of oleic acid, control (GFP), HSD17B13 transcript A and D HepG2 cell lines, FIG. 10B", "value": "increased triglyceride (TG) content to a similar extent"}]}, {"molecule": "B1", "values": [{"measurement": "intracellular triglyceride content of overexpressing cell lines versus GFP control", "setting": "[2]", "value": "No differences in intracellular triglyceride content"}, {"measurement": "conversion of estradiol (substrate) to estrone (product) measured in the culture media", "setting": "[3]", "value": "did not show much conversion; also recorded: greatly reduced activity towards estradiol"}, {"measurement": "activity towards estradiol in vitro compared to HSD17B13 isoform A", "setting": "[4]; recombinant protein, NAD+ cofactor", "value": "greatly reduced activity towards estradiol"}, {"measurement": "enzymatic activity of the corresponding values for isoform A", "setting": "[4]; substrates 17-beta estradiol, leukotriene B4 (LTB4), 13(S)-HODE", "value": "< 10", "unit": "%"}]}, {"molecule": "B2", "values": [{"measurement": "intracellular triglyceride content of overexpressing cell lines versus GFP control", "setting": "[2]", "value": "No differences in intracellular triglyceride content"}, {"measurement": "conversion of estradiol (substrate) to estrone (product) measured in the culture media", "setting": "[3]", "value": "showed robust conversion"}]}]}
